Target: CYK-4/MgcRacGAP (UniProt Q9H0H5)
Assay: myc IP, anti-CYK-4 Western blot
Details: reference: E6 wild type; sites T342

Chain of UniProt Q9H0H5 (Q9H0H5 whole entry, looked up): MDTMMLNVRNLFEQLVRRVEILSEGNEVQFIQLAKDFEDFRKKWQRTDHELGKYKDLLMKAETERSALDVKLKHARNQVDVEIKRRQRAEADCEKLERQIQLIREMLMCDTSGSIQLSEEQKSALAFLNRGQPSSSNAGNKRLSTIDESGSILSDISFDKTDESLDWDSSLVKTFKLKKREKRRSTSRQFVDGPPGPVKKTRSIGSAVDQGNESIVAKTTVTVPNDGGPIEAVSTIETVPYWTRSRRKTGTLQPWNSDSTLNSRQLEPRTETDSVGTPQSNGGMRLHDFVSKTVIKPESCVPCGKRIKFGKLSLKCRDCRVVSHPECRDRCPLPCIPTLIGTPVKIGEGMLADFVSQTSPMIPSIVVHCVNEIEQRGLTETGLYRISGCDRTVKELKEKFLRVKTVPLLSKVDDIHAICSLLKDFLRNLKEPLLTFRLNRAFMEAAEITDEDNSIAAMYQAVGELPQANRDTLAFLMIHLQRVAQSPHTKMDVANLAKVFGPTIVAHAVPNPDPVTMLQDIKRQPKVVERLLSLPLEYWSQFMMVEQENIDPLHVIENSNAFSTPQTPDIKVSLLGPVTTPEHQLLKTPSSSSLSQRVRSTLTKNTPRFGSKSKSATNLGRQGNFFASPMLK

Q: With “ECT2 E6, 1-352 (from UniProt Q9H8V3-4) E6* (T342A)” as the substance, how does the “binding against the reference” value read?
A: stronger

Source: PMC2171506
